Measured values published in patent publication US20110217734A1 (UNIVERSITY OF ILLINOIS AT URBANA CHAMPAIGN, published 2011).

Molecular target: the molecule itself
Experiment: size-exclusion chromatography, self-association

B1: RhiG-C-His (enzyme)
chain: MKMQLIDCTLRDGGNFNNWFFSAEDINQIILHLDKANVNIIEIGYIGGSGSNKEKSVGSLANCTPELLEQLPKTIHSHLAAMVVPSVCELHLLDNLNPQLIPWIRVASYPHNAEDALPYIEYLKNRGFHVSFNVMAASYIEEKDMAELAKKSHVFGADVFYMADSFGNLTPDGVRKRVAAAFDQADCPVGFHGHNNLGLAFTNALEAMDAGATFIDTSLCGMARGAGNLPTEQFVSAIHHWDKFGDIPYKLHPILTAAEYVLSSILSSPMKISTPEIISGISNIHYYFYDLVISKCREVNLDPLQVSTLLGQTLPKRVDMSYIESVIDQNFRQESAK
notes: Recombinant protein expressed in E. coli BL21(DE3), 38.7 kDa per chain; Size-exclusion chromatography gave a native MW of about 75 kDa (homodimer); also called RhiG purified as a C-terminal fusion with a hexahistidine tag; not shown: C-terminal hexahistidine tag from the pET26b vector
B1: binds.
